T1: RepTrixie immunity repressor (Mycobacteriophage Trixie, UniProt G1JV33 1-192)
T1 sequence: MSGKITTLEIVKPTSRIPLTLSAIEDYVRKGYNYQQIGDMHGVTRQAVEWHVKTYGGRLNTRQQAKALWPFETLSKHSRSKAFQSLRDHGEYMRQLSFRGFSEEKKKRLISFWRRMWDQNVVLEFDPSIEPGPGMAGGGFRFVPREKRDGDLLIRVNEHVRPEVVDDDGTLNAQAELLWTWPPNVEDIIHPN


Molecular target: T1, RepTrixie immunity repressor
Assay: EMSA; EMSA on 8% polyacrylamide gel, serially diluted Rep with 5'-32P 30-bp dsDNA; binding buffer and temperature not given (ref. 54); protein storage buffer 50 mM Tris pH 8.0, 150 mM NaCl, 0.1 mM EDTA, 0.1 mM DTT, 50% glycerol
Conditions: protein: recombinant; chain copies: 2; label: 5' 32P; blunt

Row | Binder | Kd
1 | Trixie stoperator 30-bp (dsDNA) DNA 1: TGAGCAGTACTTGACATTCACCAGGTTGGG DNA 2: CCCAACCTGGTGAATGTCAAGTACTGCTCA | ~6.48 nM
2 | RedRock stoperator 30-bp (dsDNA) DNA 1: TAAGGCGAACTTGACATCCACCGGGTTGGG DNA 2: CCCAACCCGGTGGATGTCAAGTTCGCCTTA | ~6.48 nM

Source: article PMC6550527, “Evolution of Superinfection Immunity in Cluster A Mycobacteriophages”
